Where two headings read alike, the source gives them in different places.
Key:
[1] = molecular target: HA of H1N1 A/Puerto Rico/8/34-MA (influenza A virus); assay: cell-based or functional assay
[2] = molecular target: HA of H1N1 A/Brisbane/59/07 (influenza A virus); assay: cell-based or functional assay
[3] = molecular target: HA of H3N2 A/HK/1/68-MA (influenza A virus); assay: cell-based or functional assay
[4] = molecular target: HA of H10N7 A/Chick/Germany/N/49 (influenza A virus); assay: cell-based or functional assay
[5] = molecular target: HA of H4 A/WF/HK/MPA892/06 (influenza A virus); assay: cell-based or functional assay
[6] = molecular target: HA of H3N2 A/Panama/2007/99 (influenza A virus); assay: cell-based or functional assay
[7] = molecular target: HA of H3N2 A/HK/1/68-MA (influenza A virus); assay: cell-based or functional assay; remark: listed apart in the source
[8] = molecular target: HA of H7N7 A/PR8 H7N7-NY (influenza A virus); assay: cell-based or functional assay
[9] = molecular target: HA of H3N2 A/HK/1/68 (influenza A virus, UniProt Q91MA7 17-530); assay: BLI (Octet)
[10] = molecular target: HA of H3N2 A/Brisbane/10/2007 (influenza A virus); assay: cell-based or functional assay
[11] = molecular target: HA of H5N1 A/Vietnam/1194/04 (influenza A virus); assay: cell-based or functional assay

| Binder | VNA titer [1] [nM] | VNA titer [2] [nM] | VNA titer [3] [nM] | VNA titer [4] [nM] | VNA titer [5] [nM] | VNA titer [6] [nM] | VNA titer [7] [nM] | VNA titer [8] [nM] | binding result [9] | VNA titer [10] [nM] | VNA titer [11] [nM] |
| --- | --- | --- | --- | --- | --- | --- | --- | --- | --- | --- | --- |
| SD1047 (VHH) VHH: EVQLVESGGGLVQAGGSLRISCAASGRTYAMAWFRQAPGKEREFVAHINALGTRTYYSDSVKDRFTISRDNAKNTEYLQMNSLKPEDTAVYYCVAGGQWRAAPVAAAESYDFWGQGTQVTVSS | > 1000 | > 1000 | > 1000 |  |  |  |  |  |  |  |  |
| SD1016 (VHH, llama sdAb) VHH: EVQLVESGGGLVQAGGSLRLSCVASGMFFGIAAMGWYRQAPGKQRELVANITSDFSTNYADSVKDRFTISRDNAENTVYLQMNSLKPEDTAVYYCAADSLGTGWRHYYYWGQGTQVTVSS |  |  |  | > 1000 | > 1000 | > 1000 | > 1000 | > 1000 | no binding (tested: HA 20 µg/mL) |  |  |
| SD1035 (VHH, llama sdAb) VHH: EVQLVESGGGLVQAGGTLRLSCAASGSAVSISRMAWYRQAPGKQRELVADIFSGGGTNYADSVKGRFTISRDNAKNTVDLQMNSLKPEDTAVYYCSARSAVAAIHWDQYDYWGQGTQVTVSS |  |  |  |  |  |  |  |  | no binding (tested: HA 20 µg/mL) | > 1000 | > 1000 |

— US20190359693A1 (Janssen / Centocor, published 2019)
